Results reported in paper PMC12724168, “Real-time simultaneous monitoring of multiple analytes in bacterial cultures” (Applied and Environmental Microbiology, 2025).

Experiments:
[1] = Fluorescence titration of LAOBP-22C conjugates with ornithine; type: binding; settings: LAOBP-22C conjugate, ligand ornithine
Excerpt: (§1) Because of this, we decided to design and develop a biosensor for arginine, using the lysine/arginine/ornithine binding protein from Salmonella (LAOBP) ([52]). We carried out cysteine scanning by introducing four individual cysteine mutations at positions near the hinge region. The selection of cysteine positions was guided by the crystal structures of the apo and bound forms of the protein ([53]) (Fig. S1). Each of the four mutants was conjugated to six different fluorophores, and the fluorescence change upon the addition of ligand was characterized for each of the 24 protein-ligand conjugates. […] We determined the dissociation constants for all three ligands (arginine, lysine, and ornithine) using the LAOBP-22C acrylodan conjugate (Fig. 1F) and the coumarin conjugate (Fig. S2). With a large change in fluorescence and a dissociation constant of 1.5 µM for both arginine and lysine, we chose to use the LAOBP-22C acrylodan conjugate for subsequent experiments.
(§2) Fluorescence analysis of protein-fluorophore conjugates was carried out on a Jasco FP-8500 fluorometer. […] Fluorescence values were volume adjusted, and Kd values were determined by fitting the titration data using Kaleidagraph according to the following equation: […]
(§3) where F is the observed fluorescence at a given ligand concentration [L], Fo is the fluorescence in the absence of ligand, and Fmax is the fluorescence at saturation.

[2] = tested on: cultures of P. aeruginosa, S. aureus, E.coli, E. faecalis, and C. striatum; assay: Gel electrophoresis of biosensors after 24 h in bacterial cultures (stability); settings: 24 hours in culture, LB, supernatants
Procedure: To determine if the observed changes in fluorescence were not simply the result of degradation of the protein sensors over the course of E. coli growth, glucose, individual ligands (arabinose, ribose, glutamate, arginine, or ornithine) were added to 24-hour-old cultures containing each corresponding PBP. Immediately after the addition of the respective analyte, fluorescence was measured again (Fig. 3F).
Figure S3: Gel electrophoresis analysis of the stability of the biosensors after incubation with different bacterial species in culture for 24 hours. Left gel: TnGBP, Right gel: LAOBP. A Bio-Rad gel imager was used to detect the fluorescently labeled biosensor in each sample. In each gel, the lanes are as follows: 1. MW standard, 2. Pure protein, 3. Pure protein in LB with no bacteria, 4 – 8: supernatants after 24 hours of cultures of P. aeruginosa, S. aureus-GBP, E.coli, E. faecalis, and C. striatum.

[3] = Fluorescence change of LAOBP-22C fluorophore conjugates upon addition of ligand; type: binding; settings: LAOBP-22C mutant conjugates, ligand not given
Excerpt: as §1
Fluorescence analysis of protein-fluorophore conjugates was carried out on a Jasco FP-8500 fluorometer. UV-clear, four-sided cuvettes containing 200–300 nM labeled protein in working buffer were used. The following parameters were used for each of the fluorophores: Acrylodan (excitation: 359 nm, emission: 440–550 nm), Coumarin (excitation: 390 nm, emission: 430–520 nm), IANBD (excitation: 460 nm, emission: 500–600 nm), Alexa488 (excitation: 490 nm, emission: 500–560 nm), TMR (excitation: 555 nm, emission: 570–620 nm), and Texas Red (excitation: 595 nm, emission: 600–660 nm). Titrations were carried out by adding increasing amounts of ligand while monitoring changes in emission at the maximum wavelength. Fluorescence values were volume adjusted, and Kd values were determined by fitting the titration data using Kaleidagraph according to the following equation: […]

[4] = Fluorescence titration of LAOBP-22C conjugates with arginine; type: binding; settings: LAOBP-22C conjugate, ligand arginine
Excerpt: as §1, §2, §3

[5] = Fluorescence titration of LAOBP-22C conjugates with lysine; type: binding; settings: LAOBP-22C conjugate, ligand lysine
Excerpt: as §1, §2, §3

Row | Molecule | Kd [1] | stability of the biosensor in bacterial culture (gel electrophoresis) [2] | % Change [3] | Kd [4] | Kd [5]
1 | LAOBP-22C Acrylodan (conjugate, UniProt P02911 23-260, looked up, variant A22C, Acrylodan label) Lysine/arginine/ornithine-bind …: ALPQTVRIGTDTTYAPFSSKDCKGEFIGFDIDLGNEMCKRMQVKCTWVASDFDALIPSLKAKKIDAIISSLSITDKRQQEIAFSDKLYAADSRLIAAKGSPIQPTLESLKGKHVGVLQGSTQEAYANDNWRTKGVDVVAYANQDLIYSDLTAGRLDAALQDEVAASEGFLKQPAGKEYAFAGPSVKDKKYFGDGTGVGLRKDDTELKAAFDKALTELRQDGTYDKMAKKYFDFNVYGD | 38.9 ± 1.8 µM | two bands are visible | −50% | 1.5 ± 0.1 µM | 1.5 ± 0.1 µM
2 | LAOBP-22C Texas Red (conjugate, UniProt P02911 23-260, looked up, variant A22C, Texas Red label) Lysine/arginine/ornithine-bind …: ALPQTVRIGTDTTYAPFSSKDCKGEFIGFDIDLGNEMCKRMQVKCTWVASDFDALIPSLKAKKIDAIISSLSITDKRQQEIAFSDKLYAADSRLIAAKGSPIQPTLESLKGKHVGVLQGSTQEAYANDNWRTKGVDVVAYANQDLIYSDLTAGRLDAALQDEVAASEGFLKQPAGKEYAFAGPSVKDKKYFGDGTGVGLRKDDTELKAAFDKALTELRQDGTYDKMAKKYFDFNVYGD | – | – | −22% | – | –
3 | LAOBP-22C Alexa488 (conjugate, UniProt P02911 23-260, looked up, variant A22C, Alexa488 label) Lysine/arginine/ornithine-bind …: ALPQTVRIGTDTTYAPFSSKDCKGEFIGFDIDLGNEMCKRMQVKCTWVASDFDALIPSLKAKKIDAIISSLSITDKRQQEIAFSDKLYAADSRLIAAKGSPIQPTLESLKGKHVGVLQGSTQEAYANDNWRTKGVDVVAYANQDLIYSDLTAGRLDAALQDEVAASEGFLKQPAGKEYAFAGPSVKDKKYFGDGTGVGLRKDDTELKAAFDKALTELRQDGTYDKMAKKYFDFNVYGD | – | – | +8% | – | –
4 | LAOBP-22C TMR (conjugate, UniProt P02911 23-260, looked up, variant A22C, TMR label) Lysine/arginine/ornithine-bind …: ALPQTVRIGTDTTYAPFSSKDCKGEFIGFDIDLGNEMCKRMQVKCTWVASDFDALIPSLKAKKIDAIISSLSITDKRQQEIAFSDKLYAADSRLIAAKGSPIQPTLESLKGKHVGVLQGSTQEAYANDNWRTKGVDVVAYANQDLIYSDLTAGRLDAALQDEVAASEGFLKQPAGKEYAFAGPSVKDKKYFGDGTGVGLRKDDTELKAAFDKALTELRQDGTYDKMAKKYFDFNVYGD | – | – | −10% | – | –
5 | LAOBP-22C IANBD (conjugate, UniProt P02911 23-260, looked up, variant A22C, IANBD label) Lysine/arginine/ornithine-bind …: ALPQTVRIGTDTTYAPFSSKDCKGEFIGFDIDLGNEMCKRMQVKCTWVASDFDALIPSLKAKKIDAIISSLSITDKRQQEIAFSDKLYAADSRLIAAKGSPIQPTLESLKGKHVGVLQGSTQEAYANDNWRTKGVDVVAYANQDLIYSDLTAGRLDAALQDEVAASEGFLKQPAGKEYAFAGPSVKDKKYFGDGTGVGLRKDDTELKAAFDKALTELRQDGTYDKMAKKYFDFNVYGD | – | – | -8% | – | –
